Experimental data taken from the Human Domainome abundance scans (Beltran et al. 2025).
± gives the uncertainty stated by the source.

B1: Connector enhancer of kinase suppressor of ras 2, residues 9 to 71; numbered along this chain, Q8WXI2 (parent)
chain: SKWSPSQVVDWMKGLDDCLQQYIKNFEREKISGDQLLRITHQELEDLGVSRIGHQELILEAVD

Variants of: B1
Test: abundance fitness (aPCA) (normalised: wild type 0, dead -1); higher = more abundant; growth selection in yeast, the domain comes from the species named
Conditions: Homo sapiens

Variant | abundance fitness
D16A | -0.408 ± 0.034
D16F | -0.512 ± 0.031
D16G | -0.466 ± 0.028
D16P | -0.047 ± 0.026
D16H | -0.358 ± 0.033
D16C | -0.72 ± 0.041
R38Q | -0.134 ± 0.039
R38D | -0.163 ± 0.05
R38P | -0.681 ± 0.055
R38E | -0.302 ± 0.053
R38Y | -0.446 ± 0.093
R38W | -0.549 ± 0.038
R38K | -0.002 ± 0.033
N25L | -0.089 ± 0.026
N25M | -0.014 ± 0.045
N25K | -0.258 ± 0.039
N25Q | -0.133 ± 0.033
N25H | -0.055 ± 0.046
N25D | -0.08 ± 0.047
N25E | -0.168 ± 0.037
E56W | -0.362 ± 0.041

Variant | abundance fitness
E56V | -0.161 ± 0.034
E56T | -0.077 ± 0.033
E29M | -0.054 ± 0.041
E29F | -0.148 ± 0.036
D63W | -0.311 ± 0.12
D63T | -0.055 ± 0.057
D63C | -0.025 ± 0.05
D63F | -0.233 ± 0.057
D63Q | -0.039 ± 0.24
S1I | 0.038 ± 0.057
S1E | -0.283 ± 0.31
S1T | -0.198 ± 0.04
S1W | -0.22 ± 0.045
S1P | -0.653 ± 0.068
S1N | 0.063 ± 0.053
I39G | -0.699 ± 0.034
I39W | -0.737 ± 0.04
I39V | -0.22 ± 0.03
I39D | -0.569 ± 0.075
I39K | -0.576 ± 0.047
I39T | -0.455 ± 0.042

Variant | abundance fitness
I39E | -0.607 ± 0.048
I39S | -0.537 ± 0.037
G48L | -0.991 ± 0.055
G48I | -1.29 ± 0.33
G48K | -0.552 ± 0.058
G48N | -0.66 ± 0.078
G48D | -0.64 ± 0.075
G48H | -0.813 ± 0.1
G48S | -0.66 ± 0.036
G14L | -0.579 ± 0.031
G14A | -0.41 ± 0.034
G14Y | -1.04 ± 0.11
G14W | -0.986 ± 0.1
G14I | -0.922 ± 0.13
G14C | -0.34 ± 0.036
G14V | -0.895 ± 0.053
H54T | -0.874 ± 0.049
H54A | -0.727 ± 0.036
H54C | -0.835 ± 0.07
T40H | -0.6 ± 0.076
T40N | -0.201 ± 0.052

Variant | abundance fitness
Q42F | -0.618 ± 0.077
Q42W | -0.767 ± 0.047
Q42R | -0.03 ± 0.024
Q42A | -0.083 ± 0.017
Q42T | -0.118 ± 0.028
Q42G | -0.193 ± 0.028
Q42E | -0.119 ± 0.034
Q42I | -0.558 ± 0.086
Q42V | -0.258 ± 0.024
V8Y | -1.01 ± 0.086
V8L | -0.775 ± 0.044
V8I | -0.524 ± 0.038
V8H | -0.878 ± 0.052
V8Q | -0.947 ± 0.092
L15W | -0.266 ± 0.04
L15V | -0.42 ± 0.027
L15A | -0.652 ± 0.034
L15Q | -0.164 ± 0.035
L15R | -0.535 ± 0.037
L15Y | -0.636 ± 0.067
L15T | -0.427 ± 0.032
